# Reference: article PMC3729527, “Redox-sensitive DNA binding by homodimeric Methanosarcina acetivorans MsvR is modulated by cysteine residues”
# T1: MaMsvR (Methanosarcina acetivorans C2A) (UniProt Q8TQT2)
# T1 sequence: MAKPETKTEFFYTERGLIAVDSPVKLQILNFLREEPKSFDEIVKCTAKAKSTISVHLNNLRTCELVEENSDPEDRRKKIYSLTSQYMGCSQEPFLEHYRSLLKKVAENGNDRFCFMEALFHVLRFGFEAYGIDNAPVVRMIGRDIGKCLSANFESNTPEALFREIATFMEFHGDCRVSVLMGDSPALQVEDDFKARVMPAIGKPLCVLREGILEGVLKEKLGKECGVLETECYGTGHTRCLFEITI
# T2: MaMsvR C232A C232A (Methanosarcina acetivorans C2A), ORF:da4acb06
# T2 sequence: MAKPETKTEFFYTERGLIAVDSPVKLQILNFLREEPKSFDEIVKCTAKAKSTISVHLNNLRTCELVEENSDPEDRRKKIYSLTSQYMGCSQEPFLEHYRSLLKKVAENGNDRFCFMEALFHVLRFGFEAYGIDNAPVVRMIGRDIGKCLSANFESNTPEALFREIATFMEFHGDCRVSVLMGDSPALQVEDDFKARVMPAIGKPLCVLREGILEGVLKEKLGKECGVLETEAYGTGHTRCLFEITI
# T3: MaMsvR C206A C206A (Methanosarcina acetivorans C2A), ORF:da4acb06
# T3 sequence: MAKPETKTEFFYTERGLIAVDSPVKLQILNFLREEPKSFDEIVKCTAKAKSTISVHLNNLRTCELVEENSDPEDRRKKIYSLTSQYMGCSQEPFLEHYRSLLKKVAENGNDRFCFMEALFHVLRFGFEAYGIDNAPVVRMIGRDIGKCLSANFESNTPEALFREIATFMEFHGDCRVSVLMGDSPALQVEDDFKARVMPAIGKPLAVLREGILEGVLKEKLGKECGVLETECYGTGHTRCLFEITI
# T4: MaMsvR C240A C240A (Methanosarcina acetivorans C2A), ORF:da4acb06
# T4 sequence: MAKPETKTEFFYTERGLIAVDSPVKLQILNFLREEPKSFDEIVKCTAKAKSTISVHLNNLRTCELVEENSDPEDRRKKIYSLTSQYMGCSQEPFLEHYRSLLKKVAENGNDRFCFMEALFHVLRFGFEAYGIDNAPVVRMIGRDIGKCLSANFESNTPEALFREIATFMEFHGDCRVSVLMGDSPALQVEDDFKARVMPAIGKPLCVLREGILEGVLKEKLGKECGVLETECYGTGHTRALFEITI
# T5: MaMsvR (Methanosarcina acetivorans C2A, UniProt Q8TQT2 1-246)
# T5 sequence: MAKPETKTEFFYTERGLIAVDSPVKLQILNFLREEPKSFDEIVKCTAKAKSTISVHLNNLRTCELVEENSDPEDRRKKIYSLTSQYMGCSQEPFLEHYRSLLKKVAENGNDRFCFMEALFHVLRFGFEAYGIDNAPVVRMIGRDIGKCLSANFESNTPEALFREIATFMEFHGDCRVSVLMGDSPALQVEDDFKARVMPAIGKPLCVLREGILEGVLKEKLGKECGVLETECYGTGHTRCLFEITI
# Key:
# [1] = target: T1, MaMsvR (Methanosarcina acetivorans C2A); test: EMSA; conditions: EMSA at room temperature, 10 nM DNA and 200 nM MsvR (50 nM DNA and 1 uM protein for 50 bp oligos), with or without 5 mM DTT; binding buffer as in cited ref 9 …
# [2] = tested on: T2, MaMsvR C232A C232A (Methanosarcina acetivorans C2A), ORF:da4acb06; test: EMSA; conditions: EMSA at room temperature, 10 nM DNA and 200 nM MsvR (50 nM DNA and 1 uM protein for 50 bp oligos), with or without 5 mM DTT; binding buffer as in cited ref 9 …
# [3] = tested on: T3, MaMsvR C206A C206A (Methanosarcina acetivorans C2A), ORF:da4acb06; test: EMSA; conditions: EMSA at room temperature, 10 nM DNA and 200 nM MsvR (50 nM DNA and 1 uM protein for 50 bp oligos), with or without 5 mM DTT; binding buffer as in cited ref 9 …
# [4] = tested on: T4, MaMsvR C240A C240A (Methanosarcina acetivorans C2A), ORF:da4acb06; test: EMSA; conditions: EMSA at room temperature, 10 nM DNA and 200 nM MsvR (50 nM DNA and 1 uM protein for 50 bp oligos), with or without 5 mM DTT; binding buffer as in cited ref 9 …
# [5] = target: Methanosarcina acetivorans MsvR (methanogen specific V4R domain regulator), N-terminal Strep-tag (Methanosarcina acetivorans C2A); test: SEC; Superdex 200 HiLoad 16/600; 20 mM Tris pH 8, 10 mM MgCl2, 200 mM KCl; 0.5 ml/min; non-reduced MaMsvR (0.65 mg loaded) and reduced MaMsvR (0.84 mg, 2 mM beta-ME in the elution buffer); calibrated with ferritin, conalbumin, carbonic anhydrase, ribonuclease A
# [6] = target: Methanosarcina acetivorans MsvR (methanogen specific V4R domain regulator), N-terminal Strep-tag (Methanosarcina acetivorans C2A); test: SDS-PAGE without boiling, with immunoblot (Strep-tag antibody); 1 pmol protein in Laemmli sample buffer without or with 5 mM DTT, room temperature five minutes, not boiled; reduced and boiled sample as control; oligomers that withstand SDS, likely stabilised by disulfide bonds
# MaMsvR [7] = target: T5, MaMsvR; test: EMSA; 5 mM DTT; 1 uM protein, 50 nM DNA; EMSA at room temperature, 10 nM DNA and 200 nM MsvR (50 nM DNA and 1 uM protein for 50 bp oligos), with or without 5 mM DTT; binding buffer as in cited ref 9; protein stock in 20 mM Tris pH 8, 10 mM MgCl2, 200 mM KCl, glycerol; conditions: protein: recombinant; tags: N-terminal Strep-tag; chain copies: 2; blunt
# MaMsvR [8] = target: T5, MaMsvR; test: EMSA; reducing; EMSA at room temperature, 10 nM DNA and 200 nM MsvR (50 nM DNA and 1 uM protein for 50 bp oligos), with or without 5 mM DTT; binding buffer as in cited ref 9; protein stock in 20 mM Tris pH 8, 10 mM MgCl2, 200 mM KCl, glycerol; conditions: protein: recombinant; tags: N-terminal Strep-tag; chain copies: 2; blunt
molecule,measurement,setting,value
GCAGATCTCGCAGCGGTACTTTTCTCCTTTTCTGGATACAGCCATAGCTACTTCACCTCCTTGCTTCTGAATTTAAATACCTCAAAACTTTCAAGCGGGCTTTCCCCTTCCCTGTAATCCCGAAATTACTCCGGGTTTCACCAACACTCATACATGTTAACCATTCTTTGTATATAATTGTAAGGACTTTTTAAAAAGTAACATAAATTTTTTCCTTCTATTCGGGTATGTCTTA (double strand) [Ma P4664],binding,[1],no binding
TTACTTTGCCGTTTCCCCCCATTTTCTTTATATCTTTTTATATCTGTATTATTATATTTCAAACATGATTATTCGTAGTCACGCGAACGTTTTATATATTCAAAACGCAACTTATCTAAAGATATTATGGCAAAACCTGAGACCAAAACTGAATTCTTTTATACCGAAAGAGGGCTCATAGCCGTAGACAGCCCTGTTAAACTCCAGATCCTGAATTTTCTCAGGG (double strand) [Ma PmsvR (PCR)],binding,[2],binds
same,binding,[3],binds
same,binding,[4],binds
same,binding,[1],binds
AGATCCCCCAGCGTCTCCAGAACTTGCGGAGTGAATCCCATTTTTTCTCCCATACTCTCCAGTATCTCTTCATGCTCTGTCATTTTTCCAGTCTCCTTACTCCGATAACTACCAGCTGTTGATATTTATATTGGTTATTTATATTTATTATTAATTAATATTTCTCAAATCTGTGTTCAGGCCTTTTACTTCCTCATTCCTGTCCAAAGGCCCTTTATTAAAGTCCGCATCCTTTGTTATGGGCTGCACA (double strand) [Ma P3736],binding,[1],no binding
AAAGTAAGAAATTCTCTCTATATGTATGGGTTTATGATATCTCAGACCTGAAAATATGCGGATAAAATTCGGATAAAACAGGATTTCCTGATTTGGAGGGAAAGTAATGAAGTGTTACGAATGTGCCAGAGAGGGCAAAGATACGGATGCTGTGGGAATTTGTATCGTATGTGGAAGAGGAGTTTGCAAAGAACACCTTATCCATGAGGAAACACCTGCGTGGGAAGGCGACTATCCTAT (double strand) [Ma P3734],binding,[1],no binding
TCAGCTTTTCTTACGTTTGACCGTTATAGGAATAATTTCGGCCTTCAACTCTGCAATGGCTACACCCAGGGGGTCCAGCCGCCCGTCATCATCAACCAGGACAGGAGCCCCCATTGCTATCTGCAATGCTCTTGCACCTACAATTCGTGCACGCTCGAACCGGGTATACTTTT (double strand) [Ma rpoK],binding,[1],no binding
CCGAAAACATTCCTGGCAATCTCCGGGATATTATATATTTCCATACTTTTCCTCCAACTCTCTTCTGAATCATTTACTCTCAAAATAAAATGTACCAAAATACGGTACACAGAAATCTTTAACTGTTCCCCACAAGCTCAAAACAGTATTATGGTGTAGCTATGTTAATTCGATATATTTATTATATTGATTAAATATTTTTGATAAGAACCTCTTTCTATTTTTACCTGTTCGTTCTGTCAGA (double strand) [Ma P3381],binding,[1],no binding
"Methanosarcina acetivorans MsvR (methanogen specific V4R domain regulator), N-terminal Strep-tag (natural protein)",stoichiometry N,[5],2
same,stoichiometry N,[6],2
AGGCTTTACAAAGTAAATAAAGGGGAGAAAAAGGGTTAAAACCTGAATAAGAAGTAAAGAAAACTCCGATATAAGCAAAAGTATTTATAGAATCCGATTACAAAATCAGAGGTTAGAAGGAATTTATATTAACAAAAAGAAGCTTGGAGGATAATATGGCAAAAGTTATACCATTTGCACCAATCGAACGCCTGATAAGGACGGCTGGTGCCCACAGAGTAAGTGAGA (double strand) [Ma PhmaA],binding,[1],no binding
Ma PmsvR 50 bp box A mutant (dsDNA) DNA 1: TATTTCAAACATGATTAGGGGTAGTCACGCGAACGTTTTATATATTCAAA DNA 2: TTTGAATATATAAAACGTTCGCGTGACTACCCCTAATCATGTTTGAAATA,binding result,MaMsvR [7],no binding
Ma PmsvR 50 bp box B mutant (dsDNA) DNA 1: TATTTCAAACATGATTATTCGTAGTCACGGGGGCGTTTTATATATTCAAA DNA 2: TTTGAATATATAAAACGCCCCCGTGACTACGAATAATCATGTTTGAAATA,binding result,MaMsvR [7],no binding
Ma PmsvR 1 bp deletion between boxes (dsDNA) DNA 1: TATTTCAAACATGATTATTCGTAGCACGCGAACGTTTTATATATTCAAA DNA 2: TTTGAATATATAAAACGTTCGCGTGCTACGAATAATCATGTTTGAAATA,binding result,MaMsvR [8],binds
Ma PmsvR 1 bp insertion between boxes (dsDNA) DNA 1: TATTTCAAACATGATTATTCGTAGTTCACGCGAACGTTTTATATATTCAAA DNA 2: TTTGAATATATAAAACGTTCGCGTGAACTACGAATAATCATGTTTGAAATA,binding result,MaMsvR [8],binds
Ma PmsvR flanks replaced (dsDNA) DNA 1: GAGGGAATGAAATCCTCTTCGTAGTCACGCGAAAATGGACAAGTCTGATT DNA 2: AATCAGACTTGTCCATTTTCGCGTGACTACGAAGAGGATTTCATTCCCTC,binding result,MaMsvR [8],no binding
